From PMC4726456

Target: 15-residue tubulin peptide

- acetylation activity kept with a 15-residue tubulin peptide (data not shown): 89 % activity
Substance: F105A TAT mutant (from UniProt Q5SQI0 1-421) (enzyme)
